Experimental data published in patent US20060099643A1, “Method for determining the regulation of xenobiotic removal” (priority 2002, published 2006).

Tests used:
ER-α [1] = target: T1, ER-α (UniProt P03372 297-554, limits assumed); experiment: Thermofluor thermal shift; ER-α 8 µM, no ligand; SRC-3 11 µM
T1 construct: also called estrogen receptor alpha
T1 sequence (looked up): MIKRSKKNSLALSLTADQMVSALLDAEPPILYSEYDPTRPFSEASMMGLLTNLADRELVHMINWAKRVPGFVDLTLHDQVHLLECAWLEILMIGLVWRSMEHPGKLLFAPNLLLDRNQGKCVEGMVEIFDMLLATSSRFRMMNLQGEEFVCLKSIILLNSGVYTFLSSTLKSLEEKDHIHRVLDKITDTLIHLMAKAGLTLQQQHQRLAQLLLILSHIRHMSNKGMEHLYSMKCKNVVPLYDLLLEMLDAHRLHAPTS

ER-β [2] = target: T2, ER-β (UniProt Q92731 256-505, limits assumed); experiment: Thermofluor thermal shift; ER-β 8 µM, no ligand; SRC-3 11 µM
T2 construct: also called estrogen receptor beta

ER-α [3] = target: T1, ER-α; experiment: Thermofluor thermal shift; ER-α 8 µM with estrone 20 µM; SRC-3 11 µM
ER-β [4] = target: T2, ER-β; experiment: Thermofluor thermal shift; ER-β 8 µM with estrone 20 µM; SRC-3 11 µM
ER-α [5] = target: T1, ER-α; experiment: Thermofluor thermal shift; ER-α 8 µM with estradiol 20 µM; SRC-3 11 µM
ER-α [6] = target: T1, ER-α; experiment: Thermofluor thermal shift; ER-α 8 µM with tamoxifen 20 µM; SRC-3 11 µM
ER-β [7] = target: T2, ER-β; experiment: Thermofluor thermal shift; ER-β 8 µM with estradiol 20 µM; SRC-3 11 µM
ER-β [8] = target: T2, ER-β; experiment: Thermofluor thermal shift; ER-β 8 µM with tamoxifen 20 µM; SRC-3 11 µM
ER-α [9] = target: T1, ER-α; experiment: Thermofluor thermal shift; ER-α 8 µM with ICI-182780 20 µM; SRC-3 11 µM
ER-β [10] = target: T2, ER-β; experiment: Thermofluor thermal shift; ER-β 8 µM with ICI-182780 20 µM; SRC-3 11 µM
ER-α [11] = target: T1, ER-α; experiment: Thermofluor thermal shift; ER-α 8 µM with 2-methoxy-E2 20 µM; SRC-3 11 µM
ER-β [12] = target: T2, ER-β; experiment: Thermofluor thermal shift; ER-β 8 µM with 2-methoxy-E2 20 µM; SRC-3 11 µM
ER-α [13] = target: T1, ER-α; experiment: Thermofluor thermal shift; ER-α 8 µM with 4-OH-tamoxifen 20 µM; SRC-3 11 µM
ER-β [14] = target: T2, ER-β; experiment: Thermofluor thermal shift; ER-β 8 µM with 4-OH-tamoxifen 20 µM; SRC-3 11 µM
ER-α [15] = target: T1, ER-α; experiment: Thermofluor thermal shift; ER-α 8 µM with 17-α-ethylene-E2 20 µM; SRC-3 11 µM
ER-β [16] = target: T2, ER-β; experiment: Thermofluor thermal shift; ER-β 8 µM with 17-α-ethylene-E2 20 µM; SRC-3 11 µM

T2 sequence (Q92731 256-505 limits assumed): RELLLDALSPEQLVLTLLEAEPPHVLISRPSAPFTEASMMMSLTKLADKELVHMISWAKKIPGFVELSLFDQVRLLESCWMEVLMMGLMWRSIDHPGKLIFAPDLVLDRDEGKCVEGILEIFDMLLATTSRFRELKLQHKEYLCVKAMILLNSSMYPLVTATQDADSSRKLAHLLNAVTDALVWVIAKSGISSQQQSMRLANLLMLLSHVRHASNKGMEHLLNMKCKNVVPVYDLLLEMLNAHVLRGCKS

- change in Tm stabilization from the receptor-ligand ΔTm (ER-α [1]): 1.5
- change in Tm stabilization from the receptor-ligand ΔTm (ER-β [2]): 0.9
- change in Tm stabilization from the receptor-ligand ΔTm (ER-α [3]): 3.5 °C
- change in Tm stabilization from the receptor-ligand ΔTm (ER-β [4]): 1.6 °C
- change in Tm stabilization from the receptor-ligand ΔTm (ER-α [5]): 3.8 °C
- change in Tm stabilization from the receptor-ligand ΔTm (ER-α [6]): 1.1 °C
- change in Tm stabilization from the receptor-ligand ΔTm (ER-β [7]): 1.7
- change in Tm stabilization from the receptor-ligand ΔTm (ER-β [8]): 1.3
- change in Tm stabilization from the receptor-ligand ΔTm (ER-α [9]): 0.5 °C
- change in Tm stabilization from the receptor-ligand ΔTm (ER-β [10]): 0.9 °C
- change in Tm stabilization from the receptor-ligand ΔTm (ER-α [11]): 5.3
- change in Tm stabilization from the receptor-ligand ΔTm (ER-β [12]): 2.5 °C
- change in Tm stabilization from the receptor-ligand ΔTm (ER-α [13]): 0.2
- change in Tm stabilization from the receptor-ligand ΔTm (ER-β [14]): 1.2 °C
- change in Tm stabilization from the receptor-ligand ΔTm (ER-α [15]): 4.5 °C
- change in Tm stabilization from the receptor-ligand ΔTm (ER-β [16]): 2.6
Substance: co-activator protein SRC-3 (from UniProt Q9Y6Q9 627-829)
